Laboratory results from IntAct's records for PubMed 24464040.

Tests used:
kap3_rat Prkar2b [1] = target: kap3_rat Prkar2b (UniProt P12369)
kap3_rat Prkar2b [2] = target: kap3_rat Prkar2b (UniProt P12369); remark: listed apart in the source

kap3_rat Prkar2b, sequence (P12369 whole entry): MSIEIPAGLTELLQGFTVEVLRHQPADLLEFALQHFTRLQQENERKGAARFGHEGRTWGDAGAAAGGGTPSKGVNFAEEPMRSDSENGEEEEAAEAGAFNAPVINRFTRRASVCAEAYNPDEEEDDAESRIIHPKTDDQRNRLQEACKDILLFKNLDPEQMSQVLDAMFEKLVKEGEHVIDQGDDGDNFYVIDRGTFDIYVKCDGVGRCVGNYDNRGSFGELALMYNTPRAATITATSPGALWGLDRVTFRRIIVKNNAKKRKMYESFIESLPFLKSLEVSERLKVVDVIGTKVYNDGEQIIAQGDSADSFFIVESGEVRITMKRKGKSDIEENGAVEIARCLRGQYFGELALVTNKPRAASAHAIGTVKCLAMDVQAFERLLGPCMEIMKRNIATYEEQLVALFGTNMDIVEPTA

| Substance | effect of a mutation on the interaction (kap3_rat Prkar2b [1]) | effect of a mutation on the interaction (kap3_rat Prkar2b [2]) |
| --- | --- | --- |
| Leucine-rich repeat serine/threonine-protein kinase 2 (Homo sapiens), Q5S007 G2385R | increasing interaction |  |
| Leucine-rich repeat serine/threonine-protein kinase 2 (Homo sapiens), Q5S007 R1441C |  | decreasing interaction |
